Experimental data taken from US20240201167A1 (ALBERT EINSTEIN COLLEGE OF MEDICINE, published 2024).

T1: human p75 neurotrophin receptor, full length, expressed on HEK 293 cells (Homo sapiens, UniProt P08138 29-427)
T1 construct: Full-length human p75 with a cytosolic fluorescent tag (GFP); also called p75NTR; NGFR
T1 sequence: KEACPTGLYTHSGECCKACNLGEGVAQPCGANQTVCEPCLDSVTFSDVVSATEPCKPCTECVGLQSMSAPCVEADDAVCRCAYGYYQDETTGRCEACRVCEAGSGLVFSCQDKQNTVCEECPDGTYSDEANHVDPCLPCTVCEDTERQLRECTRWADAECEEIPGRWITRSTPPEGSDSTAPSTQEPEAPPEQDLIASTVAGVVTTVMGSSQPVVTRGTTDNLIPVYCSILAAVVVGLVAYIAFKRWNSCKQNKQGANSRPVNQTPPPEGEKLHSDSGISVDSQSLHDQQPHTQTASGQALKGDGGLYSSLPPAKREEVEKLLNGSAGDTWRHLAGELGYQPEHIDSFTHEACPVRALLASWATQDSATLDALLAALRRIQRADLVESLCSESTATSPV

T2: human B7-1 (CD80), full length, expressed on HEK 293 cells (Homo sapiens, UniProt P33681 35-280)
T2 construct: also called hB7-1; B7-1-mCherry
T2 sequence: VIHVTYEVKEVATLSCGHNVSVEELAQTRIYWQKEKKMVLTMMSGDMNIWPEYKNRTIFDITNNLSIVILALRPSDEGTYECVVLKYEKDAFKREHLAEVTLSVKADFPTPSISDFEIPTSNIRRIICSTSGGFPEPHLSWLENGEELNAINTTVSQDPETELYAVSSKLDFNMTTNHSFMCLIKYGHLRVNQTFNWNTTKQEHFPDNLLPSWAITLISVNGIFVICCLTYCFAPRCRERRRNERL

T3: human B7-1 K139D on cells (Homo sapiens, UniProt P33681 35-280)
T3 construct: mCherry-tagged point mutant; also called LYS139ASP; LYS139 ASP
T3 chain: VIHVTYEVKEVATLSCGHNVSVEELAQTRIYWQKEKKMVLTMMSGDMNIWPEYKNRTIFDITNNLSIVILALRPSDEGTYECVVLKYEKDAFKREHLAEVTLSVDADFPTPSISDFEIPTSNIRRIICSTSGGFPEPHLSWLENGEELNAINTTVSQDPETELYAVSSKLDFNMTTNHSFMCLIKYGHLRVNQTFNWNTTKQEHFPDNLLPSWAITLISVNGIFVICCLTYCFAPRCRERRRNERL

T4: human B7-1 R63D on cells (Homo sapiens, UniProt P33681 35-280)
T4 construct: mCherry-tagged point mutant; also called ARG63 ASP
T4 chain: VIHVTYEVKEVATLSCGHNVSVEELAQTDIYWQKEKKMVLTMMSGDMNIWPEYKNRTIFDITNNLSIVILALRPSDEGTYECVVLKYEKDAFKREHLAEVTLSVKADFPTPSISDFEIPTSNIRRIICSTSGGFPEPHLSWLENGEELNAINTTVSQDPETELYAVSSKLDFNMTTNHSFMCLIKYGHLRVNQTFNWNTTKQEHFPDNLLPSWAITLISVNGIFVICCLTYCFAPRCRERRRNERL

T5: human B7-1 N82E on cells (Homo sapiens, UniProt P33681 35-280)
T5 construct: C-terminally fused to mCherry; also called ASN82 GLU
T5 chain: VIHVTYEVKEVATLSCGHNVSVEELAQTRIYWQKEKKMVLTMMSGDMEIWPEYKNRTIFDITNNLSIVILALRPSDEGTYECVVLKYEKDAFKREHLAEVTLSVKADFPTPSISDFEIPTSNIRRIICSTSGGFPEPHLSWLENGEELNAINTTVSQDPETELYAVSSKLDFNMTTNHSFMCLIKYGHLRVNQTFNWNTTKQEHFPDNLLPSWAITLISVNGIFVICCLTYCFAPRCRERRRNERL

T6: human B7-1 K120D on cells (Homo sapiens, UniProt P33681 35-280)
T6 construct: mCherry-tagged point mutant; also called LYS120 ASP
T6 chain: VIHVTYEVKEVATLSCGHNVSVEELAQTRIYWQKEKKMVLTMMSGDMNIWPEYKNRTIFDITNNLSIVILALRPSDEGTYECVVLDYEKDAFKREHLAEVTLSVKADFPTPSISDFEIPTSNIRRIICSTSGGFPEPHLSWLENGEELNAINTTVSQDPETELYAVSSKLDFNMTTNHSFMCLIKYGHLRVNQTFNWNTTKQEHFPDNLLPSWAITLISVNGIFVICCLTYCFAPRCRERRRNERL

T7: human B7-1 K127D on cells (Homo sapiens, UniProt P33681 35-280)
T7 construct: mCherry-tagged point mutant; also called LYS127 ASP
T7 chain: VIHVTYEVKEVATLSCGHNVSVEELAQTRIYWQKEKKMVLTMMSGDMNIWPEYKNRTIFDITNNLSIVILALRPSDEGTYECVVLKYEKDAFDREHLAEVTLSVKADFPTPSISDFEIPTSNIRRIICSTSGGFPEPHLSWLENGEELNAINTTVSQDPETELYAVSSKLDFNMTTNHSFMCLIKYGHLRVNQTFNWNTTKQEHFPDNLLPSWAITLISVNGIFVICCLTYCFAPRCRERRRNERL


Legend:
[1] = molecular target: T1, human p75 neurotrophin receptor, full …; test: cell-cell screen, flow cytometry
Protocol: As illustrated, cells were transfected with expression cassettes expressing labeled receptors or labeled ligands, receptor-expressing cells were mixed with ligand-expressing cells and cell-to-cell binding was monitored by detecting the labels associated with the receptor and the ligand. […] Binding was detected using an anti-mIgG2A ab and flow cytometry. The binding curves were fit and the Bmax, EC50, and hill coefficient were calculated using the equation Y=Bmax*Xh/(Kdh+Xh).

[2] = molecular target: T2, human B7-1 (CD80), full length, …; test: cell-cell binding, flow cytometry; percent of the wild-type pair
[3] = molecular target: T3, human B7-1 K139D on cells; test: as above
human B7-1 R63D on cells = molecular target: T4, human B7-1 R63D on cells; test: as above
human B7-1 N82E on cells = molecular target: T5, human B7-1 N82E on cells; test: as above
[4] = molecular target: T6, human B7-1 K120D on cells; test: as above
[5] = molecular target: T7, human B7-1 K127D on cells; test: as above

binding result [1] | percent binding [2] [%] | percent binding [3] [%] | percent binding (human B7-1 R63D on cells) [%] | percent binding (human B7-1 N82E on cells) [%] | percent binding [4] [%] | percent binding [5] [%] | Binder
no binding | – | – | – | – | – | – | B7-2 expressed on cells (ligand, human, UniProt P42081 24-329, looked up, whole, on cells) APLKIQAYFNETADLPCQFANSQNQSLSELVVFWQDQENLVLNEVYLGKEKFDSVHSKYMGRTSFDSDSWTLRLHNLQIKDKGLYQCIIHHKKPTGMIRIHQMNSELSVLANFSQPEIVPISNITENVYINLTCSSIHGYPEPKKMSVLLRTKNSTIEYDGVMQKSQDNVTELYDVSISLSVSFPDVTSNMTIFCILETDKTRLLSSPFSIELEDPQPPPDHIPWITAVLPTVIICVMVFCLILWKWKKKKRPRNSYKCGTNTMEREESEQTKKREKIHIPERSDEAQRVFKSSKTSSCDKSDTCF
– | 83 | 19 | 18 | 11 | 20 | 19 | human p75NTR L165K on cells (receptor, Fluorescent-tagged point mutant; also called LEU165K*) KEACPTGLYTHSGECCKACNLGEGVAQPCGANQTVCEPCLDSVTFSDVVSATEPCKPCTECVGLQSMSAPCVEADDAVCRCAYGYYQDETTGRCEACRVCEAGSGLVFSCQDKQNTVCEECPDGTYSDEANHVDPCKPCTVCEDTERQLRECTRWADAECEEIPGRWITRSTPPEGSDSTAPSTQEPEAPPEQDLIASTVAGVVTTVMGSSQPVVTRGTTDNLIPVYCSILAAVVVGLVAYIAFKRWNSCKQNKQGANSRPVNQTPPPEGEKLHSDSGISVDSQSLHDQQPHTQTASGQALKGDGGLYSSLPPAKREEVEKLLNGSAGDTWRHLAGELGYQPEHIDSFTHEACPVRALLASWATQDSATLDALLAALRRIQRADLVESLCSESTATSPV
– | 64 | 25 | 26 | 15 | 19 | 25 | human p75NTR L165H on cells (receptor, Fluorescent-tagged point mutant; also called LEU165H*) KEACPTGLYTHSGECCKACNLGEGVAQPCGANQTVCEPCLDSVTFSDVVSATEPCKPCTECVGLQSMSAPCVEADDAVCRCAYGYYQDETTGRCEACRVCEAGSGLVFSCQDKQNTVCEECPDGTYSDEANHVDPCHPCTVCEDTERQLRECTRWADAECEEIPGRWITRSTPPEGSDSTAPSTQEPEAPPEQDLIASTVAGVVTTVMGSSQPVVTRGTTDNLIPVYCSILAAVVVGLVAYIAFKRWNSCKQNKQGANSRPVNQTPPPEGEKLHSDSGISVDSQSLHDQQPHTQTASGQALKGDGGLYSSLPPAKREEVEKLLNGSAGDTWRHLAGELGYQPEHIDSFTHEACPVRALLASWATQDSATLDALLAALRRIQRADLVESLCSESTATSPV
– | 90 | 13 | 25 | 66 | 15 | 16 | human p75NTR F136H on cells (receptor, Fluorescent-tagged point mutant) KEACPTGLYTHSGECCKACNLGEGVAQPCGANQTVCEPCLDSVTFSDVVSATEPCKPCTECVGLQSMSAPCVEADDAVCRCAYGYYQDETTGRCEACRVCEAGSGLVHSCQDKQNTVCEECPDGTYSDEANHVDPCLPCTVCEDTERQLRECTRWADAECEEIPGRWITRSTPPEGSDSTAPSTQEPEAPPEQDLIASTVAGVVTTVMGSSQPVVTRGTTDNLIPVYCSILAAVVVGLVAYIAFKRWNSCKQNKQGANSRPVNQTPPPEGEKLHSDSGISVDSQSLHDQQPHTQTASGQALKGDGGLYSSLPPAKREEVEKLLNGSAGDTWRHLAGELGYQPEHIDSFTHEACPVRALLASWATQDSATLDALLAALRRIQRADLVESLCSESTATSPV
– | 38 | 14 | 13 | 10 | 16 | 11 | human p75NTR P150H on cells (receptor, Fluorescent-tagged point mutant) KEACPTGLYTHSGECCKACNLGEGVAQPCGANQTVCEPCLDSVTFSDVVSATEPCKPCTECVGLQSMSAPCVEADDAVCRCAYGYYQDETTGRCEACRVCEAGSGLVFSCQDKQNTVCEECHDGTYSDEANHVDPCLPCTVCEDTERQLRECTRWADAECEEIPGRWITRSTPPEGSDSTAPSTQEPEAPPEQDLIASTVAGVVTTVMGSSQPVVTRGTTDNLIPVYCSILAAVVVGLVAYIAFKRWNSCKQNKQGANSRPVNQTPPPEGEKLHSDSGISVDSQSLHDQQPHTQTASGQALKGDGGLYSSLPPAKREEVEKLLNGSAGDTWRHLAGELGYQPEHIDSFTHEACPVRALLASWATQDSATLDALLAALRRIQRADLVESLCSESTATSPV
– | 69 | 11 | 14 | 13 | 17 | 15 | human p75NTR P150K on cells (receptor, Fluorescent-tagged point mutant) KEACPTGLYTHSGECCKACNLGEGVAQPCGANQTVCEPCLDSVTFSDVVSATEPCKPCTECVGLQSMSAPCVEADDAVCRCAYGYYQDETTGRCEACRVCEAGSGLVFSCQDKQNTVCEECKDGTYSDEANHVDPCLPCTVCEDTERQLRECTRWADAECEEIPGRWITRSTPPEGSDSTAPSTQEPEAPPEQDLIASTVAGVVTTVMGSSQPVVTRGTTDNLIPVYCSILAAVVVGLVAYIAFKRWNSCKQNKQGANSRPVNQTPPPEGEKLHSDSGISVDSQSLHDQQPHTQTASGQALKGDGGLYSSLPPAKREEVEKLLNGSAGDTWRHLAGELGYQPEHIDSFTHEACPVRALLASWATQDSATLDALLAALRRIQRADLVESLCSESTATSPV
– | 81 | 18 | 29 | 77 | 16 | 23 | human p75NTR F136K on cells (receptor, Fluorescent-tagged point mutant) KEACPTGLYTHSGECCKACNLGEGVAQPCGANQTVCEPCLDSVTFSDVVSATEPCKPCTECVGLQSMSAPCVEADDAVCRCAYGYYQDETTGRCEACRVCEAGSGLVKSCQDKQNTVCEECPDGTYSDEANHVDPCLPCTVCEDTERQLRECTRWADAECEEIPGRWITRSTPPEGSDSTAPSTQEPEAPPEQDLIASTVAGVVTTVMGSSQPVVTRGTTDNLIPVYCSILAAVVVGLVAYIAFKRWNSCKQNKQGANSRPVNQTPPPEGEKLHSDSGISVDSQSLHDQQPHTQTASGQALKGDGGLYSSLPPAKREEVEKLLNGSAGDTWRHLAGELGYQPEHIDSFTHEACPVRALLASWATQDSATLDALLAALRRIQRADLVESLCSESTATSPV
